Values quoted from earlier work as cited in US12514832B2, “Methods for using low-dose colchicine after myocardial infarction” (INSTITUT DE CARDIOLOGIE DE MONTREAL, priority 2019, dated 2026).

How the values were obtained:
interleukin-13 = interleukin-13 (Homo sapiens, UniProt P01584); settings: CANTOS; cited from earlier work
[1] = CIRT; cited from earlier work

Row | Molecule | incidence of fatal infections versus placebo (in words) (interleukin-13) | effect on cardiovascular outcomes or plasma markers of inflammation (in words) [1]
1 | canakinumab: injectable monoclonal antibody; anti-inflammatory studied in CANTOS | slightly higher incidence of fatal infections | 
2 | CN(Cc1cnc2nc(N)nc(N)c2n1)c1ccc(C(=O)N[C@@H](CCC(=O)O)C(=O)O)cc1 [methotrexate] |  | did not affect cardiovascular outcomes or plasma markers of inflammation
